Assay results from a protein production outcome set (Wang et al. 2014).

Experiment: label from the status in PepcDB records
With “MQTLLPLLARGAVLSPFKRPRPDAAFPHSRLVLSGVRIDLARLAAYERACGFPTGADALPLTYPHVLGFPLAMRIMASRAFPLPLLGLVHTSIEVTRLREPAATGEYELAVHVEGLTPHRRGTEATVVTGARVDGSLVWESRSTYLARHRRATDARTPADARTATDARTPADARTATDARTAADARTAAPVPSAEPKPLPVVAEWRLAADVGRRYAAVSGDRNPIHLHPLTARLFGFPRAIAHGMWTVARCLAEQPADASVQLRAEFKSPVLLPGTVTYAADGGRFELRGGERVHLTGELREYRANSA” the protein production was “failed”. For “MQTQFQFINDCLIENQPLWRFEPFQSSIQPSLPWQETHPQLCQWLESLSPSQIETLKADPDLALDEISVFLPDLPSLLRHTQLESMALDGLALERGLDSGIPGRKLEQITAMGEAAIQSHQGEEWLEWCSGKGYLGRILTTQTNQPVTSFEYQQALCDSGQQAANEHHWKMTFIQGDAFDPQTKAVFKPTQHAVALHACGDLHVRLMEYGSEAGIAAMTISPCCYHLIQSETYQALSQSVRASELILSKHELRIPLQQTVTGGERVRRHRQQEMVFRLGFDLLTREILGVDEYQPVPSIRKSQLSDGFEALCLWVAKEKGIEINQAIDFAEFEKRAIKRFWHMERMSLVQLVFQRPLEIWLALDKVLYLEERGYRVRLAEFCPKSVTPRNILICAYKN”, the protein production was “failed”. For “MQTQVLFEHPLNEKMRTWLRIEFLIQQLTVNLPIVDHAGALHFFRNVSELLDVFERGEVRTELLKELDRQQRKLQTWIGVPGVDQSRIEALIQQLKAAGSVLISAPRIGQFLREDRLIALVRQRLSIPGGCCSFDLPTLHIWLHLPQAQRDCQVETWIASLNPLTQALTMVLDLIRQSAPFRKQTSLNGFYQDNGGDADLLRLNLSLDSQLYPQISGHKSRFAIRFMPLDTENGQVPERLDFELACC”, the protein production was “not failed”. For “MQTWQQLYSPLGSLGLSALAAVIPIVFFFLALAVFRLKGHVAGSITLALSILVAIFAFQMPADMALAAAGYGFAYGLWPIAWIIVAAVFLYKLTVKSGQFEIIRSSVLSITDDQRLQVLLIGFCFGAFLEGAAGFGAPVAITAALLVGLGFNPLYAAGLCLIANTAPVAFGALGIPIIVAGQVTGIDAFKIGAMTGRQLPLLSLFVPFWLVFMMDGMRGVKETWPAALVAGLSFAVTQYFTSNFIGPELPDITSALASLISLTLFLKIWQPKRTAGAQIAGATSSAAITASAGGFGQPRQTQASPYSLGQIFKAWSPFLILTVLVTIWTLKPFKAMFAAGGSMYGWVFNFAIPHLDQLVIKMAPIVTTPTAIPAVFKLDPISATGTAIFFSALISMLLLKIDFKTGLTTLKETFYELRWPILSIGMVLAFAFVTNYSGMSSTMALVLAATGAAFPFFSPFLGWLGVFLTGSDTSSNALFSSLQATTAHQIGVNDTLLVAANTSGGVTGKMISPQSIAVACAATGLVGKESDLFRFTLKHSLFFATIVGLITLAQAYWFTGMLVH”, the protein production was “failed”. With “MQVEREENRKEVYEMKKETTGSKKVENGMEQEILNGQQPHWEKVFSNTCSRFGDEPSYPARKAAAIFEKEGKKKILELGGGQGRDTCFFASRGFSVHSLDYTESGTKAMKEKAEESGFGKYVTALRHDARNPLPFEAETFDACYSHMLYCMALTTDELEFLCKEIKRVLKPGGINIYTARHTGDAHYGTGTHRGEDMYEIAGGFIVHFFSREKVENLAKEYGSFELEEFEEGELPRKLYMVTMRK” the protein production was “failed”. In the case of “MQVPKVTLNNGVEMPILGYGVFQIPPEKTEECVYEAIKVGYRLIDTAASYMNEEGVGRAIKRAIDEGIVRREELFVTTKLWVSDVGYESTKKAFEKSLKKLQLEYIDLYLIHQPFGDVHCAWKAMEEMYKDGLVRAIGVSNFYPDRLMDLMVHHEIVPAVNQIEIHPFYQRQEEIEFMRNYNIQPEAWGPFAEGRKNIFQNGVLRSIAEKYGKTVAQVILRWLTQKGIVAIPKTVRRERMKENISIFDFELTQEDMEKIATLDEGQSAFFSHRDPEVVKWICSLKR”, the protein production is reported as “not failed”. With “MQVQELVGIVPWNFIATICNLFIQVYLIKRFLFKPVNEMLEKRRAKADAEIQDAVKAKEEAEVMKAEYEKNMQEAKEKANDIVLTAQKTAAVQSEEMLKEASSQVTAMKEKAEKDIAQERRKAVNEIKGEIGGMAVEIAGKVIEREINEEDHTKLINDFIENVGEAS” the protein production was “not failed”. For “MQVRAVFFARLRREVGLEELTLDVPDGADVRAVAEHLEQERGVSLRGCMVAVNETYASPEHLLREGDEVAFLPPVAGGAPEDEADADTHCRVTADPLSLSEADAFLVKPEYGAQAYFMGTVRSPNQGQVVEYIDYEAFAPMAEKVMREAAALARERHGELRVWIEHRTGRLTPAVASIVIGVASPHRRPALEACDFLIEHLKIELPIWKHEADGRGEHWVKGTTGHDTL”, the protein production was “failed”. With “MQWPPPWRRSPLVSATPPPGPTRGLLCPRRVSEAGDSSTEGARTGHSHYVTPAESAMEGRSQPLPSLRPASPTNAPAHGRGSDCTAKEPPLANVCRQNYGAAQDPVELAGRRSASHVTGSSLGKAEVACGRRWRWAELLADTSWSPAGRATEMKVKMLSRNPDNYVRETKLDLQRVPRNYDPALHPFEVPREYVRALNATKLERVFAKPFLASLDGHRDGVNCLAKHPEKLATVLSGACDGEVRIWNLTQRNCIRTIQAHEGFVRGICTRFCGTSFFTVGDDKTVKQWKMDGPGYGDEEEPLHTILGKTVYTGIDHHWKEAVFATCGQQVDIWDEQRTNPICSMTWGFDSISSVKFNPIETFLLGSCASDRNIVLYDMRQATPLKKVILDMRTNTICWNPMEAFIFTAANEDYNLYTFDMRALDTPVMVHMDHVSAVLDVDYSPTGKEFVSASFDKSIRIFPVDKSRSREVYHTKRMQHVICVKWTSDSKYIMCGSDEMNIRLWKANASEKLGVLTSREKAAKDYNQKLKEKFQHYPHIKRIARHRHLPKSIYSQIQEQRIMKEARRRKEVNRIKHSKPGSVPLVSEKKKHVVAVVK” the protein production was “failed”. For “MQYSSFGEKFNRYSGITQLMDDLNDGLRTPGAIMLGGGNPAAIPAMLDYFHNTSAEMLADGSLLNAMTNYDGPQGKDVFVKSLATLLRETYGWNISEKNITLTNGSQSGFFYLFNLFAGKQPDGAHKKILLPLAPEYIGYGDAGIDDDIFVSYRPEIELLDQGLFKYHVDFSELKVDESVAAICVSRPTNPTGNVLTEEEIHKLDQLARDNGVPLIIDNAYGVPFPNIIFEDIEPFWNDNTILCMSLSKLGLPGLRCGIVIANEAVTQALTNMNGIISLAPGSMGPALVQRMIEKGDLLRLSEQVIKPFYRQKAQHAVELLQSAITDPRFRIHKPEGAIFLWLWFDELPITTMELYQRLKARGVLIVPGEYFFIGQPQEWPHAHECLRMNYVQNEQAMEQGIAIIAEEVQKAYQQANV”, the protein production was “failed”. In the case of “MRAGSGQCTGAAMDRLTEMEAFAMVVDQGGFTDAARKMGISKSAVSKHVSALEARLGARLLNRTTRRVSPTEIGLAYYDRARRVLTDAGEADALVTSMQTAPSGHLRLSVATDFGVALLAPILAEFLLDYPDITVTMVLNNRSVELISEGFDMAIRVGDLEDSSLRARKLTETTRRMIASPGYLQRHGRPMKIDDLTDHRLLYHSTQAHGNVWRLLSPSGEPRQVRAPGFLTVNDGHSLLKAAVSGLGIAHLPEFLFAEAMRAGLVEEVLPDLPVETLGIHAIYPAGRFTQPKVRAFIDFLVRRFLEKGPIGN”, the protein production is reported as “failed”. In the case of “MRAIAIVLARSSSKRIKNKNIIDFFNKPMLAYPIEVALNSKLFEKVFISSDSMEYVNLAKNYGASFLNLRPKILADDRATTLEVMAYHMEELELKDEDIACCLYGASALLQEKHLKNAFETLNKNQNTDYVFTCSPFSASPYRSFSLENGVQMAFKEHSNTRTQDLKTLYHDAGLLYMGKAQAFKEMRPIFSQNSIALELSPLEVQDIAHFRRFRISQAQIQPFEKRMPVKILCDCFLTSGLGHVRRCEKILSFIEKLGVEASLYLHKQNNISAFLEGVGGNDFLITDSYCLNSKDFYLLKEKAKSLMVIEDTEHAKGFYPKNTKILNFTLNALKHYHHLSKDYQYYLGVGFYPVDARFIYDRPINTENKEVLITLGGSEQKTLKEIVKILENKNVNLHIISPYTPKNPPKNTHYYSPLNPLEFSSLMKSCACAISAAGQTLYELALSQTPSLILPIASNQIIQSKEFESLGIFKQTSLKTLAKDFENLQIQKNQAWAKNLVFGDKLEGALREFLEI”, the protein production is reported as “failed”. For “MRALALICVVWVCWRESCARHGTEDSSESGLRYAYTLVVDGTANTRRCFGTGHVDGEAFVGYSNNKTHGIGRWVNASHVEEENKEFVRQCKELQAELDKMQNNSKVIGVKTVQLDVGCTSKIEKHYAYDGNETEDDTATSASERDRDCQKKLTEYRKLVLASAVSPQLEVERRSSGREGGMRLRCFARDYYPADLEIRWWKDDGGGGALPQTSKQHHDPLPSGNGLYQKHIDVYVDGGLEHVYSCRVKGIATGLELQIVRWKGYARGAGNSVVLLALFIPASVMAAVVVGSVLIRKKSKEQRKTRRRFGRRSGHEPKRPSYQVKRRAEPPCDLPMTIWFRGDNVMSTQVEACPAYAVTMSARELSDAWSNGDGPIVTVPDPSI”, the protein production was “not failed”. In the case of “MRAPLSTYRRPQRTDFVTPTGGPFFAKQDKALNTIDLKMAHDLKLRGYRVKVAVVDEGVRSDHPLLNVEKKYGGDYMADGTRTYPDPKRQGRHGTSVALVLAGQDTDTYRGGVAPNADLYSANIGTRAGHVSDEAAFHAWNDLLGHGIKIFNNSFATEGPEGEQRVKEDRNEYHSAANKQNTYIGRLDRLVRDGALLIFAAGNGRPSGRAYSEVGSVGRTPRVEPHLQRGLIVVTAVDENGRLETWANRCGQAQQWCLAAPSTAYLPGLDKDNPDSIHVEQGTSLSAPLVTGAAVLVQDRFRWMDNDNLRTTLLTTAQDKGPYGVDPQYGWGVLDVGRAVQGPAQFAFGDFVARVTDTSTFGLEHHHHHH”, the protein production is reported as “failed”. With “MRASQSAIFRRIDPFAILSFTIPLAVYLLTLAPSVTFFDSGEFITAIHSLGTAHSPGYPLFVNYGKPFTWLPFGNIAFRVNIATAVSASAACFAVYFLTHYLLKREELVPDLRFSDTFARLCGLAAALAFAFSARLWLQSNHDKPYPLVAFMTAMVFYLLVTWRERYDEGEMRPSHIYLGAFICGLATGAHQTIVLMLPAYAWLILSKNWRLAARVKELALTVAFGLMGFAIQLHMPIRAMRNPLLNWGDPRTLDLFLWNFLRKGYPVEPPDRNLALAWQQLSAFNLPREFTWVGLVLLLVGIGAFFTRRRDEIIAYLLAIVCSLLVIVGYFNTPGDLIFLTEEFFTPIYLLSAVFIGLGLFTLLRLALRNNPVEKLRTVPIKLMAGLLLLVLPSAICAMNYYENDQHENYVAFDYATNTLRSLSPGAVLFTWGDSGAFPLWYLQGVERMREDLDLLHTPHLVFDWYLDAFPHLFGRSVLRTMPERRQSSEVALKLAVAEQIVSRPVFIDFSTRYSLPFAEYGLKQRGICYQLINDGGSVLRPPDLAVWRLYASRGYTSQMGFRDLDTGKAILIYASCRMEAGEILLRMGYRQQGAEELSAAAAIAPELRAQVEQVLAAYGAR” the protein production was “failed”. For “MRASTLLIIAGMFIVSLYALIEVSFYSSQVTVHRPDVRAPVIEVPSINLTETINNRSVFYGVYHEPMSYPPGNRTVILFGHRTLYGSPFLHLDKLRAGDSVYLNWPGVGFAEYRVNRSFIVPASYQMPVNQGAKLFLITCHPLGSTRERLIVECHLEGIRPYQRNVRVDNPKSYYSIPIILGFLSAGLLVTRFYPVEEDRRFLLAAVIGLTVFLVLGYLFPIPPEFISDKLMEFNNILGI”, the protein production was “failed”. With “MRATEDHTIFDRGVGQRDQLQRLWTPYRMNYLAEAPVKRDPNSSASPAQPFTEIPQLSDEEGLVVARGKLVYAVLNLYPYNPGHLMVVPYRRVSELEDLTDLESAELMAFTQKAIRVIKNVSRPHGFNVGLNLGTSAGGSLAEHLHVHVVPRWGGDANFITIIGGSKLEHHHHHH” the protein production was “failed”. With “MRDALHVTADDADATDDAIPDSRETGVTGVVLAGGLSTRLGHDKAVIRLHGEQGPDLLVRTAALLEPLVDEVWISCRPGRCVTGPYLRIYDEVQGLGPFGGVMTALRAAQGPVLVLSCDLPFMERTLLERLLERRGARHPEALMTTFRQEETGFIESLVAVYEYACLPFFEDALTDGVHKLSRVIPAERREDIVYTQNEALPFFNVNYPADLEMARRIIGALLEHHHHHH” the protein production was “failed”.
